# Assay results reported in US20020151497.
# Legend:
# [1] = biological target: Syk, endogenous, from WEHI-231 cells (UniProt P48025)
# [2] = biological target: T1, CD19, endogenous, immunoprecipitated from WEHI-231 cells (UniProt P25918)
# T1 sequence: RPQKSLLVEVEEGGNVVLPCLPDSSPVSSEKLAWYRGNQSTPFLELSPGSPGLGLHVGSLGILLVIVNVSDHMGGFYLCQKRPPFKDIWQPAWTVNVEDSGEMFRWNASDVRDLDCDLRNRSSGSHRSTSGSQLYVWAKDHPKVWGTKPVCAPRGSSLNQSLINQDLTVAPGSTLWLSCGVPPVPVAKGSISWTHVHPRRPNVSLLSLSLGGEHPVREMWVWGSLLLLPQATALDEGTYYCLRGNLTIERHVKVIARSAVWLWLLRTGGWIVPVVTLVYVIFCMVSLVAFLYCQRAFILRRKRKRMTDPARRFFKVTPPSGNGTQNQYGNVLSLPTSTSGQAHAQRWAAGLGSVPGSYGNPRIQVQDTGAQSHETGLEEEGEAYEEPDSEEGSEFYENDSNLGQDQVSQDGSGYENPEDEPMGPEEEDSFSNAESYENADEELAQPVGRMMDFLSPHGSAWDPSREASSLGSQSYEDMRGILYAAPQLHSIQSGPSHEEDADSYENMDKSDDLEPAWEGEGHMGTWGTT
# [3] = biological target: Lyn-kinase, endogenous, immunoprecipitated from WEHI-231 cells (UniProt P25911)
# Chain of Lyn-kinase, endogenous, immunoprecipitated from WEHI-231 cells (P25911 whole entry, looked up): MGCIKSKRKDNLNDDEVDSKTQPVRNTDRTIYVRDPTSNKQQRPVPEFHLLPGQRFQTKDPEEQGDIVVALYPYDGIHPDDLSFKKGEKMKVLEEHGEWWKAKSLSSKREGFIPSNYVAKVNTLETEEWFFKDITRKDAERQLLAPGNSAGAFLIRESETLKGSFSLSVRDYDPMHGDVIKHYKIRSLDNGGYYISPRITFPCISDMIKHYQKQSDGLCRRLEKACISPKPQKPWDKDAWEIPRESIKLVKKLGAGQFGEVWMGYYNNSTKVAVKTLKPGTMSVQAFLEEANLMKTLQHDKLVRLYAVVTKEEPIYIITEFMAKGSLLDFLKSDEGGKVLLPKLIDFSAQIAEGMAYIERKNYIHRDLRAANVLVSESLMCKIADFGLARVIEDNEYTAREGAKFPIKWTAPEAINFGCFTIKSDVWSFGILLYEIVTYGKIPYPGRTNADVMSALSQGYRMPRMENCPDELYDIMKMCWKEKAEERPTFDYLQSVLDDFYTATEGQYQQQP
# Chain of Syk, endogenous, from WEHI-231 cells (P48025 whole entry, looked up): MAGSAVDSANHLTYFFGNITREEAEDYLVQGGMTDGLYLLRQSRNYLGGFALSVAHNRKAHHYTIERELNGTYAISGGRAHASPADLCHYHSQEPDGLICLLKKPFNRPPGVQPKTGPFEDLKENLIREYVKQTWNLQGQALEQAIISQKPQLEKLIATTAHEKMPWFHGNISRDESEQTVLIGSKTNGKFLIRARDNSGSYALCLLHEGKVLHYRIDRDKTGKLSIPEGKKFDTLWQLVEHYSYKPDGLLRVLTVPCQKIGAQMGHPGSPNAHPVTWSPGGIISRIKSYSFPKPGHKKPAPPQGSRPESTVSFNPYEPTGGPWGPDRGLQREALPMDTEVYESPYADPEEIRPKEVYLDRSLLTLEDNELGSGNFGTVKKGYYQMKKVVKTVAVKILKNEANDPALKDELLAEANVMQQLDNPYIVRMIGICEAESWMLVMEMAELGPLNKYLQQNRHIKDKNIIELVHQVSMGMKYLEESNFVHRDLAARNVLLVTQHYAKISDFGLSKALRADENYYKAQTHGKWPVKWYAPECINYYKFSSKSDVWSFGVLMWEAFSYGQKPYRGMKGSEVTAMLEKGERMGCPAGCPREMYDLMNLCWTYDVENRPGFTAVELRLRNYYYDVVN
substance,measurement,setting,value
exogenous Lyn (5 units added to the kinase assay),"phosphorylation level of immunoprecipitated Syk (anti-phosphotyrosine Western blot) with exogenous Lyn and 0, 10, 50 and 100 µM K055H302",[1],"Lyn, CD19 and Syk all showed dose-dependent decreased phosphorylation in the presence of the compound of the invention"
same,"phosphorylation level of immunoprecipitated CD19 (anti-phosphotyrosine Western blot) with exogenous Lyn and 0, 10, 50 and 100 µM K055H302",[2],"Lyn, CD19 and Syk all showed dose-dependent decreased phosphorylation in the presence of the compound of the invention"
same,"phosphorylation level of immunoprecipitated Lyn (anti-phosphotyrosine Western blot) with exogenous Lyn and 0, 10, 50 and 100 µM K055H302",[3],"Lyn, CD19 and Syk all showed dose-dependent decreased phosphorylation in the presence of the compound of the invention"
